Experimental data taken from US20110275102.
Several values for one entry are separate records, joined by “and”; a condition that tells them apart may be missing. Equal values may be shown once.

How the values were obtained:
KKRNRTLTV = tested on: T1, KKRNRTLTV
T1 sequence: KKRNRTLTV

GRPRTSSF = tested on: T2, GRPRTSSF
T2 sequence: GRPRTSSF

RPRTSSK = tested on: T3, RPRTSSK
T3 sequence: RPRTSSK

RPRTSTF = tested on: T4, RPRTSTF
T4 sequence: RPRTSTF

[1] = tested on: myelin basic protein (MBP)
RPRVSSF = tested on: T5, RPRVSSF
T5 sequence: RPRVSSF

RPRTSSF = tested on: T6, RPRTSSF
T6 sequence: RPRTSSF

RPRAATF = tested on: T7, RPRAATF
T7 sequence: RPRAATF

RPRTSSA = tested on: T8, RPRTSSA
T8 sequence: RPRTSSA

RPRAGSF = tested on: T9, RPRAGSF
T9 sequence: RPRAGSF

RPRTSSV = tested on: T10, RPRTSSV
T10 sequence: RPRTSSV

RPRTSSFA = tested on: T11, RPRTSSFA
T11 sequence: RPRTSSFA

RPRNSSF = tested on: T12, RPRNSSF
T12 sequence: RPRNSSF

RPKTSSF = tested on: T13, RPKTSSF
T13 sequence: RPKTSSF

RPRGGSF = tested on: T14, RPRGGSF
T14 sequence: RPRGGSF

RPRASSF = tested on: T15, RPRASSF
T15 sequence: RPRASSF

RPRTGSF = tested on: T16, RPRTGSF
T16 sequence: RPRTGSF

RPRTSSE = tested on: T17, RPRTSSE
T17 sequence: RPRTSSE

GRARTSSFA = tested on: T18, GRARTSSFA
T18 sequence: GRARTSSFA

KKRNKTLSVA = tested on: T19, KKRNKTLSVA
T19 sequence: KKRNKTLSVA

RPRTASF = tested on: T20, RPRTASF
T20 sequence: RPRTASF

KKRNRTLSVA = tested on: T21, KKRNRTLSVA
T21 sequence: KKRNRTLSVA

KKKNRTLSVA = tested on: T22, KKKNRTLSVA
T22 sequence: KKKNRTLSVA

RPRGASF = tested on: T23, RPRGASF
T23 sequence: RPRGASF

RPRTSS = tested on: T24, RPRTSS
T24 sequence: RPRTSS

RPRGSSF = tested on: T25, RPRGSSF
T25 sequence: RPRGSSF

RPRAASF = tested on: T26, RPRAASF
T26 sequence: RPRAASF

RPRTSSL = tested on: T27, RPRTSSL
T27 sequence: RPRTSSL

Crosstide GRPRTSSFAEG = tested on: T28, Crosstide GRPRTSSFAEG
T28 sequence: GRPRTSSFAEG

RPRTNSF = tested on: T29, RPRTNSF
T29 sequence: RPRTNSF

RPRTVSF = tested on: T30, RPRTVSF
T30 sequence: RPRTVSF

KPRTSSF = tested on: T31, KPRTSSF
T31 sequence: KPRTSSF

Substance: HA-RAC-PKα immunoprecipitated from IGF-1 stimulated 293 cells
- Km (KKRNRTLTV): 388 µM
- Vmax (KKRNRTLTV): 330 U/mg
- Km (GRPRTSSF): 8 µM
- V (0.1 mM): relative rate of phosphorylation at 0.1 mM peptide (relative to peptide 1) (GRPRTSSF): 129
- Vmax (GRPRTSSF): 385 U/mg
- Km (RPRTSSK): 80 µM
- V (0.1 mM): relative rate of phosphorylation at 0.1 mM peptide (relative to peptide 1) (RPRTSSK): 67
- Vmax (RPRTSSK): 308 U/mg
- Km (RPRTSTF): 30 µM
- V (0.1 mM): relative rate of phosphorylation at 0.1 mM peptide (relative to peptide 1) (RPRTSTF): 78
- Vmax (RPRTSTF): 240 U/mg and 243 U/mg
- Km [1]: MBP with a Km of 5 µM and a Vmax of 25 U/mg
- Vmax [1]: MBP with a Km of 5 µM and a Vmax of 25 U/mg
- Km (RPRVSSF): 25 µM
- V (0.1 mM): relative rate of phosphorylation at 0.1 mM peptide (relative to peptide 1) (RPRVSSF): 77
- Vmax (RPRVSSF): 273 U/mg
- Km (RPRTSSF): 5 µM
- V (0.1 mM): relative rate of phosphorylation at 0.1 mM peptide (relative to peptide 1) (RPRTSSF): 105
- Vmax (RPRTSSF): 260 U/mg
- Km (RPRAATF): 25 µM
- Vmax (RPRAATF): 230 U/mg
- Km (RPRTSSA): 250 µM
- V (0.1 mM): relative rate of phosphorylation at 0.1 mM peptide (relative to peptide 1) (RPRTSSA): 30
- Vmax (RPRTSSA): 265 U/mg
- Km (RPRAGSF): 49 µM
- V (0.1 mM): relative rate of phosphorylation at 0.1 mM peptide (relative to peptide 1) (RPRAGSF): 70
- Vmax (RPRAGSF): 114 U/mg
- Km (RPRTSSV): 21 µM
- V (0.1 mM): relative rate of phosphorylation at 0.1 mM peptide (relative to peptide 1) (RPRTSSV): 102
- Vmax (RPRTSSV): 300 U/mg
- Km (RPRTSSFA): 8 µM
- V (0.1 mM): relative rate of phosphorylation at 0.1 mM peptide (relative to peptide 1) (RPRTSSFA): 109
- Vmax (RPRTSSFA): 305 U/mg
- Km (RPRNSSF): > 500 µM
- V (0.1 mM): relative rate of phosphorylation at 0.1 mM peptide (relative to peptide 1) (RPRNSSF): 21
- Km (RPKTSSF): > 500 µM
- V (0.1 mM): relative rate of phosphorylation at 0.1 mM peptide (relative to peptide 1) (RPKTSSF): 2
- Km (RPRGGSF): 105 µM
- V (0.1 mM): relative rate of phosphorylation at 0.1 mM peptide (relative to peptide 1) (RPRGGSF): 55
- Vmax (RPRGGSF): 345 U/mg
- Km (histone H2B): histone H2B with a Km of 5 µM and a Vmax of 68 U/mg
- Vmax (histone H2B): histone H2B with a Km of 5 µM and a Vmax of 68 U/mg
- Km (RPRASSF): 12 µM
- V (0.1 mM): relative rate of phosphorylation at 0.1 mM peptide (relative to peptide 1) (RPRASSF): 89
- Vmax (RPRASSF): 230 U/mg
- Km (RPRTGSF): 25 µM
- V (0.1 mM): relative rate of phosphorylation at 0.1 mM peptide (relative to peptide 1) (RPRTGSF): 77
- Vmax (RPRTGSF): 233 U/mg
- Km (RPRTSSE): > 500 µM
- V (0.1 mM): relative rate of phosphorylation at 0.1 mM peptide (relative to peptide 1) (RPRTSSE): 9
- Km (GRARTSSFA): Km of 10 µM and Vmax of 230 U/mg
- Vmax (GRARTSSFA): Km of 10 µM and Vmax of 230 U/mg
- Km (KKRNKTLSVA): > 500 µM
- Km (RPRTASF): 20 µM
- V (0.1 mM): relative rate of phosphorylation at 0.1 mM peptide (relative to peptide 1) (RPRTASF): 83
- Vmax (RPRTASF): 213 U/mg
- Km (KKRNRTLSVA): 80 µM
- Vmax (KKRNRTLSVA): 300 U/mg
- Km (KKKNRTLSVA): 185 µM
- Vmax (KKKNRTLSVA): 270 U/mg
- Km (RPRGASF): 105 µM
- V (0.1 mM): relative rate of phosphorylation at 0.1 mM peptide (relative to peptide 1) (RPRGASF): 37
- Vmax (RPRGASF): 160 U/mg
- Km (RPRTSS): > 500 µM
- V (0.1 mM): relative rate of phosphorylation at 0.1 mM peptide (relative to peptide 1) (RPRTSS): 2
- Km (RPRGSSF): 60 µM
- V (0.1 mM): relative rate of phosphorylation at 0.1 mM peptide (relative to peptide 1) (RPRGSSF): 37
- Vmax (RPRGSSF): 163 U/mg
- Km (RPRAASF): 25 µM
- V (0.1 mM): relative rate of phosphorylation at 0.1 mM peptide (relative to peptide 1) (RPRAASF): 77
- Vmax (RPRAASF): 215 U/mg
- Km (RPRTSSL): 8 µM
- V (0.1 mM): relative rate of phosphorylation at 0.1 mM peptide (relative to peptide 1) (RPRTSSL): 104
- Vmax (RPRTSSL): 278 U/mg
- Km (Crosstide GRPRTSSFAEG): 4 µM
- V (0.1 mM): relative rate of phosphorylation at 0.1 mM peptide (relative to peptide 1) (Crosstide GRPRTSSFAEG): 100
- Vmax (Crosstide GRPRTSSFAEG): 250 U/mg
- Km (RPRTNSF): 30 µM
- V (0.1 mM): relative rate of phosphorylation at 0.1 mM peptide (relative to peptide 1) (RPRTNSF): 81
- Vmax (RPRTNSF): 300 U/mg
- Km (RPRTVSF): 30 µM
- V (0.1 mM): relative rate of phosphorylation at 0.1 mM peptide (relative to peptide 1) (RPRTVSF): 89
- Vmax (RPRTVSF): 365 U/mg
- Km (KPRTSSF): > 500 µM
- V (0.1 mM): relative rate of phosphorylation at 0.1 mM peptide (relative to peptide 1) (KPRTSSF): 4

Substance: MAPKAP kinase-1 purified from rabbit skeletal muscle
- Km (RPRTSTF): > 500 µM
- Vmax (RPRTSTF): > 500 U/mg
- Km (RPRTSSF): 12 µM
- Vmax (RPRTSSF): 840 U/mg
- Km (RPRAATF): > 500 µM
- Km (RPRAASF): 20 µM
- Vmax (RPRAASF): 1020 U/mg
- Km (Crosstide GRPRTSSFAEG): 2 µM
- Vmax (Crosstide GRPRTSSFAEG): 790 U/mg
